Results as given in patent US20120178908A1 (Novo Nordisk, published 2012).
* marks the point of attachment. Biotin = O=C1N[C@H]2[C@H](CS[C@H]2CCCCC(=O)*)N1; AEEA = NCCOCCOCC(=O)O

Key:
Test in all cases: peptide-walk ELISA, biotin-peptide on streptavidin plate, triple determination
[1] = biological target: T1, biotinylated 20mer TLT-1 stalk peptide 6 (N-terminal biotin via 8-amino-3,6-dioxaoctanoic acid (bio-Oeg))
T1 construct: also called well A 6
T1 peptide: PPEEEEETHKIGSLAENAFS
Experimental: (§1) Epitope mapping by peptide walk. The peptide walking ELISA defined the minimal binding region of the peptide. This was established by coating biotinylated peptides with one residue frameshift in the stalk region of TLT-1 in streptavidin plates followed by binding of the antibody of interest (mAb 0061). A secondary antibody was added for detection and binding was measured at 450 nm. Positive control: binding to biotinylated TLT-1.
(§2) 1) 20mer peptide mapping with one residue frameshift (20,1) (see materials) 2) 16mer peptide mapping with one residue frameshift (16,1) (see materials) [0687] 1. Plate was prre-washed 3× with 250 μl wash buffer [0688] 2. 100 μl Biotinylated peptide-solution was added (from Masterplate 10000× diluted, one peptide pr well) [0689] 3. Incubated at RT for 1 hour or +5° C. over night [0690] 4. Washed 3× with wash buffer [0691] 5. 100 μl Primary antibody was added (dilution see above) [0692] 6. Incubated at RT for 1 hour [0693] 7. Washed 3× with wash buffer [0694] 8. 100 μl Secondary antibody was added (dilution see above) [0695] 9. Incubated at RT for 1 hour [0696] 10. Washed 3× with wash buffer [0697] 11. 100 μl Substrate/Develop buffer was added (Reaction time 3 min) [0698] 12. 100 μl 2M H3PO4 was added [0699] 13. Endpoint was read at 450 nm

[2] = biological target: T2, biotinylated 16mer hTLT-1 stalk peptide 36 (SMILES …)
T2 construct: also called well C12
T2 peptide: {Biotin-AEEA}-EEEETHKIGSLAENAF-NH2
Experimental: as §1, §2

[3] = biological target: T3, biotinylated 20mer TLT-1 stalk peptide 15 (N-terminal biotin via 8-amino-3,6-dioxaoctanoic acid (bio-Oeg))
T3 construct: also called well B 3
T3 peptide: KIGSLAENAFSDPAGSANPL
Experimental: as §1, §2

[4] = biological target: T4, biotinylated 16mer hTLT-1 stalk peptide 42 (SMILES …)
T4 construct: also called well D 6
T4 peptide: {Biotin-AEEA}-KIGSLAENAFSDPAGS-NH2
Experimental: as §1, §2

[5] = biological target: T5, biotinylated 20mer TLT-1 stalk peptide 9 (N-terminal biotin via 8-amino-3,6-dioxaoctanoic acid (bio-Oeg))
T5 construct: also called well A 9
T5 peptide: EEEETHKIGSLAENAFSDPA
Experimental: as §1, §2

[6] = biological target: T6, biotinylated 20mer TLT-1 stalk peptide 7 (N-terminal biotin via 8-amino-3,6-dioxaoctanoic acid (bio-Oeg))
T6 construct: also called well A 7
T6 peptide: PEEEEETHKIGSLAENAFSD
Experimental: as §1, §2

[7] = biological target: T7, biotinylated 16mer hTLT-1 stalk peptide 39 (SMILES …)
T7 construct: also called well D 3
T7 peptide: {Biotin-AEEA}-ETHKIGSLAENAFSDP-NH2
Experimental: as §1, §2

[8] = biological target: T8, biotinylated 20mer TLT-1 stalk peptide 16 (N-terminal biotin via 8-amino-3,6-dioxaoctanoic acid (bio-Oeg))
T8 construct: also called well B 4
T8 peptide: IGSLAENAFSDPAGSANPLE
Experimental: as §1, §2

[9] = biological target: T9, biotinylated 20mer TLT-1 stalk peptide 11 (N-terminal biotin via 8-amino-3,6-dioxaoctanoic acid (bio-Oeg))
T9 construct: also called well A11
T9 peptide: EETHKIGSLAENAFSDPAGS
Experimental: as §1, §2

[10] = biological target: T10, biotinylated 16mer hTLT-1 stalk peptide 37 (SMILES …)
T10 construct: also called well D 1
T10 peptide: {Biotin-AEEA}-EEETHKIGSLAENAFS-NH2
Experimental: as §1, §2

[11] = biological target: T11, biotinylated 16mer hTLT-1 stalk peptide 40 (SMILES …)
T11 construct: also called well D 4
T11 peptide: {Biotin-AEEA}-THKIGSLAENAFSDPA-NH2
Experimental: as §1, §2

[12] = biological target: T12, biotinylated 20mer TLT-1 stalk peptide 14 (N-terminal biotin via 8-amino-3,6-dioxaoctanoic acid (bio-Oeg))
T12 construct: also called well B 2
T12 peptide: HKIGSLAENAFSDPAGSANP
Experimental: as §1, §2

[13] = biological target: T13, biotinylated 20mer TLT-1 stalk peptide 10 (N-terminal biotin via 8-amino-3,6-dioxaoctanoic acid (bio-Oeg))
T13 construct: also called well A10
T13 peptide: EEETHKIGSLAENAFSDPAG
Experimental: as §1, §2

[14] = biological target: T14, biotinylated 20mer TLT-1 stalk peptide 8 (N-terminal biotin via 8-amino-3,6-dioxaoctanoic acid (bio-Oeg))
T14 construct: also called well A 8
T14 peptide: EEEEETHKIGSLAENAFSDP
Experimental: as §1, §2

[15] = biological target: T15, biotinylated 20mer TLT-1 stalk peptide 5 (N-terminal biotin via 8-amino-3,6-dioxaoctanoic acid (bio-Oeg))
T15 construct: also called well A 5
T15 peptide: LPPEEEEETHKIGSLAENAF
Experimental: as §1, §2

[16] = biological target: T16, biotinylated 20mer TLT-1 stalk peptide 12 (N-terminal biotin via 8-amino-3,6-dioxaoctanoic acid (bio-Oeg))
T16 construct: also called well A12
T16 peptide: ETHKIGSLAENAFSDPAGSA
Experimental: as §1, §2

[17] = biological target: T17, biotinylated 20mer TLT-1 stalk peptide 13 (N-terminal biotin via 8-amino-3,6-dioxaoctanoic acid (bio-Oeg))
T17 construct: also called well B 1
T17 peptide: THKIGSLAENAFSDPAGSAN
Experimental: as §1, §2

[18] = biological target: T18, biotinylated 16mer hTLT-1 stalk peptide 38 (SMILES …)
T18 construct: also called well D 2
T18 peptide: {Biotin-AEEA}-EETHKIGSLAENAFSD-NH2
Experimental: as §1, §2

[19] = biological target: T19, biotinylated 16mer hTLT-1 stalk peptide 41 (SMILES …)
T19 construct: also called well D 5
T19 peptide: {Biotin-AEEA}-HKIGSLAENAFSDPAG-NH2
Experimental: as §1, §2

Measured: absorbance at 450 nm

B1: mAb 0061 HC2; LC2 (antibody, V domains shown)
VH: EVKLLESGGGLVQPGGSLKLSCAASGFDFSRYWMTWVRQAPGKGLEWIGEINPDSSTINYNPSLKDKFIISRDNAKNTLYLQMSEVRSEDTALYYCASGVFTSWGQGTLVTVSA
VL: DVVMTQTPLSLPVSLGDQASISCRSSQSLVHRNGNTYFHWALQKPGQSPKLLIYKVSNRFSGVPDRFSGSGSGTDFTLKISRVEAEDLGVYFCSQSTHVPYTFGGGTKLEIKR
notes: also called 0197-0000-0061; 0012HC.T60N + 0012LC.C36A
> 3 A450: all assays above
